Experimental findings from the supplement of paper PMC12764529 are described below.

± gives the half width of the 95% confidence interval.

Data set [1] in a line: folding stability dG unfold from chymotrypsin proteolysis; higher = more stable. The essentials: (§1)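 Designed mini-proteins with no cysteine and under 80 residues were kept only if AlphaFold2 dimer inter-PAE was above 15. In a PA-tagged cDNA display construct, they were digested with trypsin and chymotrypsin and then sequenced. K50 was inferred by Bayesian fitting of counts, and unfolding free energy was derived per protease or combined against a sequence-predicted unfolded-state K50 and a shared folded-state K50.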

A short description of data set [2]: folding stability dG unfold from trypsin proteolysis; higher = more stable. An outline of the steps:
as §1

A short description of data set [3]: folding stability dG unfold (combined trypsin and chymotrypsin); higher = more stable. An outline of the steps:
as §1

Turning to “SAGGSAGGSAGGSPKTILLEVNGRLVLVTVKDGKVEIRDLENPNKTYTFPPGAKILIVDSAGGSAGGSAGGS [r4_321_TrROS_Hall]”, the “folding stability dG unfold” value in data set [1] was 1.91 ± 0.035 kcal/mol; in data set [2], 1.61 ± 0.021 kcal/mol; in data set [3], 1.84 ± 0.06 kcal/mol.
The corresponding values for “SAGGSAGGSAGGSPLLDFPEPVTTLEETTVTVYFDTNDFTVTLNVTTEVTGDVKRPTVVGSAGGSAGGSAGG [r7_735_JUSTAS]” are 0.464 ± 0.051 kcal/mol, 1.1 ± 0.044 kcal/mol and 0.788 ± 0.11 kcal/mol.
For “SAGGSAGGSAGGSPNWKWVEMEITFNVPPGAKITIPNGIKLTVPPGDPVTIKIYIAVPPSAGGSAGGSAGGS [r4_232_TrROS]”, in that order: 2.96 ± 0.048 kcal/mol, 1.94 ± 0.12 kcal/mol and 2.47 ± 0.31 kcal/mol.
As to “SAGGSAGGSAGGSPNYRLEIRVDIKVSYRYDLFTGEPIEPEVEIEVEIRLIPEGAIVDESAGGSAGGSAGGS [r4_175_TrMRF]”, the “folding stability dG unfold” value in data set [1] came to 4.54 ± 0.28 kcal/mol; in data set [2], 3.87 ± 0.14 kcal/mol; in data set [3] it was 4.57 ± 0.28 kcal/mol.
For “SAGGSAGGSAGGSPPGQEILIQIKIEFTFPIKKQTDGKPQWHPITISFTAAIPIKVDPNSAGGSAGGSAGGS [r4_271_TrROS]”, in that order: 3.59 ± 0.092 kcal/mol, 3.22 ± 0.13 kcal/mol and 3.52 ± 0.14 kcal/mol.
For “SAGGSAGGSAGGSPVIIPDKGYLVVELEEEGLLVVYPLYPDGEIGPAFVRPVHPDVPVLSAGGSAGGSAGGS [r4_409_TrMRF]”, in that order: 0.982 ± 0.039 kcal/mol, 2.61 ± 0.062 kcal/mol and 1.92 ± 0.072 kcal/mol.
On to “SAGGSAGGSAGGSPVRVKLKFKKKFTVLLPLTDEDDEILDVEKEYTVEITLEVTLPPDLSAGGSAGGSAGGS [r4_326_TrMRF]”, for which the “folding stability dG unfold” value was found to be 4.34 ± 0.2 kcal/mol in data set [1], 3.26 ± 0.15 kcal/mol in data set [2] and 4.01 ± 0.48 kcal/mol in data set [3].
The corresponding values for “SAGGSAGGSAGGSRMRLEITVRDENGLLVRLEVEFEEKDGELEMKVRAEVFPLPEEEEESAGGSAGGSAGGS [r4_168_TrROS_Hall]” are 2.71 ± 0.059 kcal/mol, 0.939 ± 0.04 kcal/mol and 2.44 ± 0.1 kcal/mol.
As to “SAGGSAGGSAGGSSFTIKVELKDENGNKYTITVTGTGSAETVKKELEKKYPNKIVKITGSAGGSAGGSAGGS [r4_412_TrMRF]”, the figures for the “folding stability dG unfold” value in data set [1], in data set [2] and in data set [3] were 2.897 ± 0.025 kcal/mol, 1.93 ± 0.089 kcal/mol and 2.69 ± 0.046 kcal/mol, respectively.
Consider “SAGGSAGGSAGGSSKVIEVNGYKITVTDNSVEIYNKKTGKKITVNADNPEVQELLKKLLSAGGSAGGSAGGS [r4_353_TrROS_Hall]”, for which the “folding stability dG unfold” value in data set [1] was 4.254 ± 0.037 kcal/mol; in data set [2], 3.6 ± 0.089 kcal/mol; in data set [3], 4.07 ± 0.094 kcal/mol.
The corresponding values for “SAGGSAGGSAGGSSSSLTPIGSSEKLEKLPDSSLRLVTTTTYRDPVTGETSTTTTVTLTDSAGGSAGGSAGG [r7_546_JUSTAS]” are 0.861 ± 0.045 kcal/mol, -0.46 ± 0.091 kcal/mol and 0.487 ± 0.052 kcal/mol.
The corresponding values for “SAGGSAGGSAGGSSSSSITTEERPVDEDSVEKTFKFPDYYVVETLDPRTGRTSVSFIPVSAGGSAGGSAGGS [r4_99_JUSTAS]” are 0.249 ± 0.041 kcal/mol, 0.756 ± 0.021 kcal/mol and 0.533 ± 0.072 kcal/mol.
The corresponding values for “SAGGSAGGSAGGSSSVSVDTDPETGLITVTTYSSSGGVTVTLYEKPPDGSLTPVSTTAVSAGGSAGGSAGGS [r4_106_JUSTAS]” are 0.844 ± 0.07 kcal/mol, 1.08 ± 0.045 kcal/mol and 1.01 ± 0.046 kcal/mol.
For the sequence “SAGGSAGGSAGGSTKTYNAEIDNPNGPKITIPIEYRNEDGESDFEEKAKKFAEEYAKKYSAGGSAGGSAGGS [r4_168_TrMRF]”, the entries for the “folding stability dG unfold” value in data set [1], in data set [2] and in data set [3] were 0.906 ± 0.16 kcal/mol, -0.886 ± 0.46 kcal/mol and 0.547 ± 0.14 kcal/mol, respectively.
For “SAGGSAGGSAGGSVTISYNPETGTVVISSPKNKKIITINAENYTPEEILEKAKEAGIDLSAGGSAGGSAGGS [r4_49_TrMRF]”, in that order: 2.02 ± 0.056 kcal/mol, 0.613 ± 0.035 kcal/mol and 1.64 ± 0.045 kcal/mol.
The corresponding values for “SAGGSAGGSAGGSVTYEADEVEIKEFTDPSTGKKYVTVTFPGPGGPVTTTLPADLIEELSAGGSAGGSAGGS [r10_447_JUSTAS]” are 1.48 ± 0.03 kcal/mol, 0.96 ± 0.043 kcal/mol and 1.33 ± 0.093 kcal/mol.
The corresponding values for “SAGGSAGGSAGGSVWIRMPPSKIKDLLDKFGIEPIEIEKMPPGWVYIRITPDALKEAGVFSAGGSAGGSAGG [r7_587_TrROS]” are 0.887 ± 0.3 kcal/mol, 0.839 ± 0.14 kcal/mol and 0.946 ± 0.16 kcal/mol.
As to “SAGGSAGGSAGGSWITFRIPEGNPEFIEELARGFGIKPKRINPNRGTITIKLPPGAKIVSAGGSAGGSAGGS [r4_3_TrROS]”, the “folding stability dG unfold” value in data set [1] came to 0.645 ± 0.096 kcal/mol; in data set [2], 0.474 ± 0.12 kcal/mol; in data set [3], 0.641 ± 0.11 kcal/mol.
